US20050025760A1 (KEIO UNIVERSITY, published 2005)

Molecular target: T1, human Dsg3 in human skin or mucosa (human, UniProt P32926 50-999)
T1 construct: whole, on cells; also called human tissues
T1 sequence (looked up): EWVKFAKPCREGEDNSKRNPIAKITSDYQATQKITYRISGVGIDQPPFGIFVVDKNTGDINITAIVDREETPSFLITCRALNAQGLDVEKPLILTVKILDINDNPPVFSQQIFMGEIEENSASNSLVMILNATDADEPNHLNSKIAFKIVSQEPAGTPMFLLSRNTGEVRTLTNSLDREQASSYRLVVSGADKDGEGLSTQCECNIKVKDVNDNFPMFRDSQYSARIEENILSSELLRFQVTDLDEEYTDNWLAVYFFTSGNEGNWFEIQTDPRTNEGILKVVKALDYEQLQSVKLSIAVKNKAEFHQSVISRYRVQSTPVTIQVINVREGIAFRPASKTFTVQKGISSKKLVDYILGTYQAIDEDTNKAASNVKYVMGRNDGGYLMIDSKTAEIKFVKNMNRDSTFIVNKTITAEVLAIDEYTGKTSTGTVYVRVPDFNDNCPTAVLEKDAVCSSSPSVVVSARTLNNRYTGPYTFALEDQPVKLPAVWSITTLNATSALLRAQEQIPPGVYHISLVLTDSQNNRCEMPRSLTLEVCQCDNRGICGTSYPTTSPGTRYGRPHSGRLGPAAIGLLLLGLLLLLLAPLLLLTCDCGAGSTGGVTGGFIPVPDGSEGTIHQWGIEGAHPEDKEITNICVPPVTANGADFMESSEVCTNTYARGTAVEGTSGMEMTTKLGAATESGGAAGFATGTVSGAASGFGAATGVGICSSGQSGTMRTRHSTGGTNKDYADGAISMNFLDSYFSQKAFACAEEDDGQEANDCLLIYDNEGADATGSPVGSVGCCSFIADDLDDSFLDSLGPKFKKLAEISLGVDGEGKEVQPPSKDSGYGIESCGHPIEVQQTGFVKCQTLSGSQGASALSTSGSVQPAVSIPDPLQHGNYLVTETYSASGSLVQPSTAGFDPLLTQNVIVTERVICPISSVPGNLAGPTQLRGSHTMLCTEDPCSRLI
Experiment: indirect immunofluorescence on human skin sections
Procedure: A-5 (Indirect Immunofluorescence) C57B1/6J mouse hard palate, liver and human skin were embedded with OCT compound (SAKURA, USA), then froze and sectioned into 5 μm thickness, and constructed a substrate. After each of hybridoma culture supernatants were reacted for 1 hour at room temperature, they were washed with PBS (3 times), and reacted with ×100 diluted FITC labeled goat anti-mouse IgG (DAKO A/S, Glostrup, Denmark) for 1 hour at room temperature, they were washed with PBS (3 times), and microscopic examination was conducted using a fluorescence microscope.

B1: anti-Dsg3 monoclonal antibody AK23 (antibody, mouse IgG1, V domains shown)
VH: QVQLQQSGTELVKPGASVKLSCKSSGYTFTSYWINWVKQRPGQGLEWIGNINPSNGGINYNEKFKSKATLTVDKSSSTAYMQLKSLTSEDSAVYYCARGGYDGYPWGQGTTVTVS
VL: DIQMTQSPKFLLVSAGDRVTITCKASQSVSYDVAWYQQKPGQSPKLLISYASNRYTGVPDRFTGSGYGSDFTFTISTVQTEDLAVYFCQQDYSSPWTFGGGTKLELKR
notes: Mouse IgG1 kappa hybridoma antibody
binding result: binds
